Substrate in the data set: O=C1O[C@H]([C@@H](O)CO)C(O)=C1O
Put plainly: steady-state Michaelis-Menten kinetics. It counts as biochemical, Populus tomentosa. To be noted: fixed H2O2 concentration. The text has this: steady-state Michaelis-Menten kinetics on PtosAPX

The record followed here is paper PMC6925217, “PtomtAPX, a mitochondrial ascorbate peroxidase, plays an important role in maintaining the redox balance of Populus tomentosa Carr” (Scientific Reports, 2019).

What is called Km is the concentration of substrate that gives half-maximal velocity. The term Vmax denotes the rate approached at saturating substrate. As usually defined, the kcat is the maximal rate divided by the concentration of active sites. As usually defined, the kcat/Km is the turnover number divided by the Michaelis constant.

B1: PtosAPX (Populus tomentosa) (protein)
chain: ASDAAQLKSAREDIKELLKSKFCHPILVRLGWHDAGTYNKNIEEWAKRGGANGSLRFEIELKHAANAGLVDALKLIQPIKDKYSGVTYADLFQMASATAIEEAGGPKIPMKYGRVDVSVPDECPEEGRLPDAGPPKPADHLRGVFYRMGLDDKEIVALSGAHTLGRSRPERSGWGKPETKYTKNGPGAPGGQSWTAEWLKFDNSYFKDIKERKDEDLLVLPTDAALFEDPSFKVYAEKYAEDKEAFFKDYAEAHAKLSNLGAKFDPPEGIMLDGVAGEKFVAAKYSSGKD
notes: ORF minus N-terminal targeting peptide, pET30a, E. coli, purified; 39 kDa on SDS-PAGE; full ORF 1,086 bp; homologue of P. trichocarpa JGI 209946
For the protein B1, the Km was determined as 4.30 ± 1.81 mM, the Vmax stood at 850 µM/min, the kcat is 15000 s⁻¹ and the specificity constant (kcat/Km) was found to be 3.48e+06 M⁻¹ s⁻¹.
